In the assay the target is B/Victoria/504/2000 HA ectodomain (residues 1–530), soluble, His-tagged (influenza B virus B/Victoria/504/2000). Put plainly: negative stain EM reconstruction.

A word on the stoichiometry N: it is a count of units in the complex or per binding partner. For the substance “B/Victoria/504/2000 HA ectodomain (residues 1–530), soluble, His-tagged (domain or fragment)”, the stoichiometry N was determined as 3.

For the origin of these results see publication PMC5253702.
